Test results published in publication PMC11955550.

Legend:
[1] = molecular target: α-synuclein (αSyn) amyloid fibrils (UniProt P37840); test: co-sedimentation; αSyn fibrils 20 µM (monomer) with DNAJB1 8 µM in low-salt HD buffer (50 mM HEPES, 2 mM DTT, pH 7.50), 30 min at 30 °C; 17,000 g 30 min; pellet and supernatant on SDS-PAGE, densitometry
[2] = molecular target: α-synuclein (αSyn) amyloid fibrils (UniProt P37840); test: co-sedimentation; αSyn fibrils 20 µM (monomer) with DNAJB1 8 µM in HKMD buffer (50 mM HEPES, 50 mM KCl, 5 mM MgCl2, 2 mM DTT, pH 7.50), 30 min at 30 °C; 17,000 g 30 min; pellet and supernatant on SDS-PAGE, densitometry

percent bound [1]: 80%
percent bound [2]: 40%
Substance: wild-type DNAJB1 (from UniProt P25685 1-340) (natural protein)
